These results are taken from article PMC3395618.

This experiment deals with HLA-Cw*0102 (human (endogenous in T2)).

Bounds are passed on as bounds.

As for “p24 Gag146-155 (from UniProt P04591 146-155) (peptide)”, the HLA-Cw*0102 expression on peptide-pulsed T2 cells (antibody DT9, flow cytometry) as compared to non-peptide pulsed T2 cells is above 5 fold. Turning to “p24 Gag162-171 (from UniProt P04591 162-171) (peptide)”, the HLA-Cw*0102 expression on peptide-pulsed T2 cells (antibody DT9, flow cytometry) as compared to non-peptide pulsed T2 cells is above 5 fold. Under “p24 Gag176-185 (from UniProt P04591 176-185) (peptide)” stands above 5 fold; under “p24 Gag164-173 (from UniProt P04591 164-173) (peptide)”, above 5 fold. Under “p24 Gag177-186 (from UniProt P04591 177-186) (peptide)” stands above 5 fold.

B1: p24 Gag334-343 (…) (peptide)
peptide: LKALGPAATL
In turn, B1 displayed an HLA-Cw*0102 expression on peptide-pulsed T2 cells (antibody DT9, flow cytometry) as compared to non-peptide pulsed T2 cells above 5 fold.

B2: p24 Gag168-177 (…) (peptide)
peptide: VIPMFSALSE
For B2, the HLA-Cw*0102 expression on peptide-pulsed T2 cells (antibody DT9, flow cytometry) as compared to non-peptide pulsed T2 cells is above 5 fold.

B3: p24 Gag234-243 (…) (peptide)
peptide: SDIAGTTSTL
For B3, the HLA-Cw*0102 expression on peptide-pulsed T2 cells (antibody DT9, flow cytometry) as compared to non-peptide pulsed T2 cells is above 5 fold.

B4: p24 Gag209-218 (…) (peptide)
peptide: AAEWDRLHPV
With B4, the HLA-Cw*0102 expression on peptide-pulsed T2 cells (antibody DT9, flow cytometry) as compared to non-peptide pulsed T2 cells was above 5 fold.
